Results as given in patent publication US11219221B2 (FarmHannong Co., Ltd., priority 2017, dated 2022).

How the values were obtained:
[1] = system: CyPPO16; test: Herbicide tolerance test of CyPPO16 wild type and variants in PPO-deficient E. coli BT3(ΔPPO); type: cell-based, Spirulina subsalsa; details: BT3(ΔPPO) transformants, two or more amino acid mutations, dark; for Herbicide tolerance, tiafenacil: 37° C., 16 to 20 hours, relative to wild type at highest concentration (50, 200 μM); for Herbicide tolerance, flumioxazin: relative to wild type at highest concentration (25, 50 μM); for Herbicide tolerance, sulfentrazone: relative to wild type at highest concentration (2000, 4000 μM)
Experimental: The mutated CyPPO gene obtained from the Example 2 was transformed to BT3 (ΔPPO) strain which is deficient of PPO activity and cultured in LB media with PPO-inhibiting herbicide, thereby examining whether growth of transformed BT3 was not inhibited.
BT3 competent cells were transformed with the pET303-CyPPO16 and pET303-CyPPO17 plasmids and those with a mutation(s) constructed in Example 2 respectively, and were cultured in LB agar media containing carbenicillin (Gold Biotechnology, Co., Ltd.).
Single colony of E. coli transformed with each CyPPO gene was cultured in 3 ml of LB broth containing carbenicillin overnight, and then was subcultured until absorbance (0D600) reached 0.5 to 1. Then, it was diluted with LB broth to OD600=0.5. Again, the diluted solution was serially diluted 4 times by a factor of one tenth.
The LB agar media (LB 25 g/l, Bacto agar 15 g/l) containing carbenicillin (100 μg/ml) and 0 to 4,000 μM of various herbicides dissolved in DMSO was prepared. Next, 10 μl of each diluted solution was dropped on the plate and cultured at 37° C. under light (Tables 7 and 9, FIGS. 2 to 6, and 18 to 22) or dark (Tables 8 and 10, FIGS. 7 to 17, and 23 to 33) for 16 to 20 hours. Then, extent of tolerance was evaluated.
The extent of herbicide tolerance of the mutated genes was evaluated by comparing that of mutated genes with that of wild type. The relative tolerance was represented with “+” as a factor of 10 times. Evaluation result was listed in Tables 7 to10 and FIGS. 2 to 33:
In Tables 7 to 10, tolerance level was presented as of tolerance of wild type and of variants equivalent to that of wild type, and was done as ‘+’ per each 10 fold resistance until ‘+++++’ as maximal resistance. (Tolerance level was evaluated by relative growth level of variants to that of wild type in the media containing highest concentration of herbicide; ‘+’=1-9 fold higher tolerance, ‘++’=10-99 fold higher tolerance, ‘+++’=100-999 fold higher tolerance, ‘++++’=1,000-9,999 fold higher tolerance, ‘+++++’=more than 10,000 fold higher tolerance)
The concentrations of herbicides were written above the photographs of tolerance test. A dilution series (0D600=0.5, 0.05, 0.005, 0.0005, 0.00005) was made and spotted on LB agar plates supplemented with herbicides.

[2] = system: CyPPO16; test: PPO enzyme activity of MBP-fused CyPPO16 wild type and variants; type: biochemical, Spirulina subsalsa; details: PPO enzyme activity relative to wild type; MBP-fused protein, 50 μM protoporphyrinogen IX, room temperature, 30 min
Experimental: (§1) Thus, PPO proteins of wild type and variants were expressed as fused to MBP and were used for experiments.
(§2) The following process for purification of PPO protein was performed in a 4° C. cold room. Amylose resin (NEB) was packed to 1.5×15 cm column (Bio-Rad, Econo Columns 1.5×15 cm, glass chromatography column, max. vol), and the obtained protein extracts were loaded to the column at a flow rate of 0.2 ml/min. The column was washed with 3 column volumes of buffer and the presence of protein in the washing solution was examined. When the protein was no longer detected, the washing procedure was terminated. Then, the MBP-PPO protein was eluted with approximately 2 column volumes of buffer containing 20 mM maltose. The protein concentration of each eluent was determined and the elution was stopped when the protein was no longer detected. Ten microliter of each fraction was investigated for protein quantification and SDS-PAGE analysis. The highly pure fractions of PPO protein variants were used for the enzyme assay.
(§3) Since protoporphyrinogen IX, a substrate of PPO protein, was not commercially available, it was chemically synthesized in the laboratory. Overall process was performed in dark under nitrogen stream. […] of protoporphyrin IX was dissolved in 20 ml of 20% (v/v) EtOH, and stirred under dark condition for 30 minutes. The obtained protoporphyrin IX solution was put into a 15 ml screw tube in an amount of 800 μl, and flushed with nitrogen gas for 5 minutes. To this, 1.5 g of sodium amalgam was added and vigorously shaken for 2 minutes. The lid was opened to exhaust hydrogen gas in the tube. Thereafter, the lid was closed and incubated for 3 minutes. The protoporphyrinogen IX solution was filtered using syringe and cellulose membrane filter. […] To determine the enzyme activity of PPO protein, a reaction mixture was prepared with the following composition (based on 10 ml): 50 mM Tris-Cl (pH 8.0); 50 mM NaCl; 0.04% (v/v) Tween 20; 40 mM glucose (0.072 g); 5 units glucose oxidase (16.6 mg); and 10 units catalase (1 μl).
(§4) Hundred and eighty microliters of a reaction mixture containing the purified PPO protein were placed in 96 well plates and 20 μl of […] were added. […] The reaction proceeded at room temperature for 30 min and the fluorescence of protoporphyrin IX was measured using Microplate reader (Sense, Hidex) (excitation: 405 nm; emission: 633 nm). […] To this, 2.7 N HCl was added, and the absorbance at 408 nm was measured. A standard curve was generated using standard protoporphyrin IX, and PPO activity was measured by calibration of protoporphyrin IX using the standard curve of protoporphyrin IX.
(§5) Activities of variants were presented relatively compared to that of wild type.

[3] = system: CyPPO17; test: PPO enzyme activity of MBP-fused CyPPO17 wild type and variants; type: biochemical, Thermosynechococcus sp. NK55a; details: PPO enzyme activity relative to wild type; MBP-fused protein, 50 μM protoporphyrinogen IX, room temperature, 30 min
Experimental: as §1, §2, §3, §4, §5

Row | Molecule | Herbicide tolerance, tiafenacil [1] | Herbicide tolerance, flumioxazin [1] | Herbicide tolerance, sulfentrazone [1] | Activity (%) [2] [%] | Activity (%) [3] [%]
1 | V305M + F360M: CyPPO16 variant (protein, Synthetic (Protoporphyrinogen IX oxidase (CyPPO16) of Spirulina subsalsa), CyPPO16 variant) MLDSLIVGAGISGLSAAHTLQKQQTQFLVTESQGRVGGNITTNRQGDYLWEEGPNSFAPTEDLLRLAVEVGLKEDLVFADRRLPRFVYWNQQLHPVPMSPPAALKTQLLSEAGKWRAALGALGFVGGLVGREEETVRQFFTRHLGTEVTERLVAPFVSGVYAGDVDQLSAQAAFRRVFEFAQLGGGLAAGGILARRQAPPKAPPDPSLPETKTGQLGSFREGLEMLPRAIASQLGDRLKLQWRLTHLEITPQQTYLAHFNTPDGPQQIATRTLILTTPAPITADLLKPLTPALHGVLKEIYYPPMACVVLAYPRAASARPLEGFGHLIPRNQGIRTLGTIWSSCLFPGRTPEGEHLLTNMIGGATDPGIAQLDPEEIAQAVHQDLCKILIRPEFTPKILAVRLWKQAIPQYTLGHLQRLATLEQELSKFPGLHILANYTDGVALGDCVKRGVAVAQKIRSRE | +++ (‘+++’=100-999 fold higher tolerance) | ++++ (‘++++’=1,000-9,999 fold higher tolerance) | + (‘+’=1-9 fold higher tolerance) | 35 | 
2 | A162C + L327T + F360M: CyPPO16 variant (protein, Synthetic (Protoporphyrinogen IX oxidase (CyPPO16) of Spirulina subsalsa), CyPPO16 variant) MLDSLIVGAGISGLSAAHTLQKQQTQFLVTESQGRVGGNITTNRQGDYLWEEGPNSFAPTEDLLRLAVEVGLKEDLVFADRRLPRFVYWNQQLHPVPMSPPAALKTQLLSEAGKWRAALGALGFVGGLVGREEETVRQFFTRHLGTEVTERLVAPFVSGVYCGDVDQLSAQAAFRRVFEFAQLGGGLAAGGILARRQAPPKAPPDPSLPETKTGQLGSFREGLEMLPRAIASQLGDRLKLQWRLTHLEITPQQTYLAHFNTPDGPQQIATRTLILTTPAPITADLLKPLTPALHGVLKEIYYPPVACVVLAYPRAASARPLEGFGHTIPRNQGIRTLGTIWSSCLFPGRTPEGEHLLTNMIGGATDPGIAQLDPEEIAQAVHQDLCKILIRPEFTPKILAVRLWKQAIPQYTLGHLQRLATLEQELSKFPGLHILANYTDGVALGDCVKRGVAVAQKIRSRE | +++++ (‘+++++’=more than 10,000 fold higher tolerance) | +++++ (‘+++++’=more than 10,000 fold higher tolerance) | ++++ (‘++++’=1,000-9,999 fold higher tolerance) | 17 | 
3 | L327T + F360M: CyPPO16 variant (protein, Synthetic (Protoporphyrinogen IX oxidase (CyPPO16) of Spirulina subsalsa), CyPPO16 variant) MLDSLIVGAGISGLSAAHTLQKQQTQFLVTESQGRVGGNITTNRQGDYLWEEGPNSFAPTEDLLRLAVEVGLKEDLVFADRRLPRFVYWNQQLHPVPMSPPAALKTQLLSEAGKWRAALGALGFVGGLVGREEETVRQFFTRHLGTEVTERLVAPFVSGVYAGDVDQLSAQAAFRRVFEFAQLGGGLAAGGILARRQAPPKAPPDPSLPETKTGQLGSFREGLEMLPRAIASQLGDRLKLQWRLTHLEITPQQTYLAHFNTPDGPQQIATRTLILTTPAPITADLLKPLTPALHGVLKEIYYPPVACVVLAYPRAASARPLEGFGHTIPRNQGIRTLGTIWSSCLFPGRTPEGEHLLTNMIGGATDPGIAQLDPEEIAQAVHQDLCKILIRPEFTPKILAVRLWKQAIPQYTLGHLQRLATLEQELSKFPGLHILANYTDGVALGDCVKRGVAVAQKIRSRE | ++++ (‘++++’=1,000-9,999 fold higher tolerance) | ++++ (‘++++’=1,000-9,999 fold higher tolerance) | ++ (‘++’=10-99 fold higher tolerance) | 21 | 
4 | V304M: CyPPO17 variant (protein, Synthetic (Protoporphyrinogen IX oxidase (CyPPO17) of Thermosynechococcus sp. NK55a), CyPPO17 variant) MEVDVAIVGGGLSGLSVAWRLQQSAPQYSGVLLEASDRLGGNITTQGAEGFVWELGPNSFAPTPALLQLIAEVGLHSELIRGDRHLPRYIYWRGELYPLEPTRPLALATSNLLSPWGKVRAALGALGFVPPYLGSGDESVNSFFRRHLGQEVAERLVAPFVSGVYAGDPQQLSAAAAFRRIAQLEKLGGGLIAGALRLRRQQPPKPRPPAEVQMRPGELGSFKEGLAALPRAIAQQLKAPVHLQTPVEAITPEPNGGYLLRSGEQTWQARSVVLATPAYQTAALVAPFQPAIARVLAAIPYPTMACVVLAYPAGLGRSVRPGFGVLIPRGQGIRTLGTIWSSCLFPQRTPAGWQVFTSFIGGATDPDLASLREEAIVQQVQQDLTRLLDLPAAKARLLGMKVWRRAIPQYLVGYPQQWQQVTHALSQTPGLFLCSNYAEGVALGDRVEHGNRTAAAVAAYLSGGQS |  |  |  |  | 82
5 | F323V: CyPPO17 variant (protein, Synthetic (Protoporphyrinogen IX oxidase (CyPPO17) of Thermosynechococcus sp. NK55a), CyPPO17 variant) MEVDVAIVGGGLSGLSVAWRLQQSAPQYSGVLLEASDRLGGNITTQGAEGFVWELGPNSFAPTPALLQLIAEVGLHSELIRGDRHLPRYIYWRGELYPLEPTRPLALATSNLLSPWGKVRAALGALGFVPPYLGSGDESVNSFFRRHLGQEVAERLVAPFVSGVYAGDPQQLSAAAAFRRIAQLEKLGGGLIAGALRLRRQQPPKPRPPAEVQMRPGELGSFKEGLAALPRAIAQQLKAPVHLQTPVEAITPEPNGGYLLRSGEQTWQARSVVLATPAYQTAALVAPFQPAIARVLAAIPYPTVACVVLAYPAGLGRSVRPGVGVLIPRGQGIRTLGTIWSSCLFPQRTPAGWQVFTSFIGGATDPDLASLREEAIVQQVQQDLTRLLDLPAAKARLLGMKVWRRAIPQYLVGYPQQWQQVTHALSQTPGLFLCSNYAEGVALGDRVEHGNRTAAAVAAYLSGGQS |  |  |  |  | 16
